In patent publication US20210388079A1:

Columns and labels:
[1] = target: NYESO1-001 (tetramer, row label of Figure 31) (human); assay: flow cytometry, HLA-A*02/NYESO1-001 tetramer staining of TCR-RNA-electroporated CD8+ T-cells; mock cells 1.09%
[2] = target: HLA-A*02/SPINK2-001 tetramer (human); assay: flow cytometry, HLA-A*02/SPINK2-001 tetramer staining of TCR-RNA-electroporated CD8+ T-cells; mock cells 0.97%

- % of CD8+ T-cells in the tetramer-positive gate [1]: 0.96%
- % of CD8+ T-cells in the tetramer-positive gate [2]: 30%
B1: TCR R49P2B7, alpha and beta chains expressed in human primary CD8+ T-cells by RNA electroporation (TCR, V domains shown)
V domain 1: AQSVTQLGSHVSVSEGALVLLRCNYSSSVPPYLFWYVQYPNQGLQLLLKYTTGATLVKGINGFEAEFKKSETSFHLTKPSAHMSDAAEYFCAVRIFGNEKLTFGTGTRLTIIP
V domain 2: DVKVTQSSRYLVKRTGEKVFLECVQDMDHENMFWYRQDPGLGLRLIYFSYDVKMKEKGDIPEGYSVSREKKERFSLILESASTNQTSMYLCASSLMGELTGELFFGEGSRLTVLE
